Measured values as given in publication PMC7041945, “Misfolded proteins bind and activate death receptor 5 to trigger apoptosis during unresolved endoplasmic reticulum stress” (eLife, 2020).

Key:
HCT116 cells [1] = test: Annexin V (and SytoxBlue) flow cytometry for apoptosis; type: cell-based, Homo sapiens; conditions: for Mean ± SEM (Fig 1S2D): n=3
Method: Cells seeded in a 6-well plate were transfected with the specified plasmid for 24 hr and harvested via trypsinization in complete media to allow a 30 min recovery at 37°C. The samples were then centrifuged at 500xg for 5 min and resuspended In 150 μl of a 1:20 dilution of Annexin V-AlexaFluor 647 conjugate (Thermo Scientific #A23204). Samples were transferred to a 96-well U-bottom plate and incubated in the dark for 15 min at RT. The distribution of apoptotic cells was determined by flow cytometry on a BD LSR II.

HCT116 cells [2] = test: Trypan blue staining, automated cell counting; type: cell-based, Homo sapiens; design: key to Trypan blue- / Trypan blue+ / avg Trypan blue- / avg Trypan blue+: % of cells (Trypan blue positive or negative); conditions: for avg Trypan blue+ / avg Trypan blue-: avg of Rep 1-3; for Dead concentration / Live concentration / Total Concentration / Viability (%): BF
Method: Cells seeded in a 6-well plate were transfected with the specified plasmid for 24 hr and harvested via trypsinization in complete media and ultimately resuspended in 400 μl of media to obtain a concentration of 1.0–3.0 × 10^6 cells/ml. The cell suspension was then mixed 1:1 with 0.4% Trypan blue (Sigma-Aldrich) and incubated at 37°C for 30 min. The percentage of cells staining positive for was then quantified using the Countess II FL Automated Cell Counter (ThermoFisher, catalog # AMQAF1000) default brightfield settings with disposable slides.

[3] = hct chop 62, biological replicate 1 (05.22.2019)
[4] = hct chop 125 (ng), biological replicate 1 (05.22.2019)
[5] = hct chop 125 (ng), biological replicate 2 (05.24.2019)
[6] = hct chop 125 (ng), biological replicate 3 (05.24.2019)
[7] = hct chop 250 (ng), biological replicate 1 (05.22.2019)
[8] = hct chop 250 (ng), biological replicate 2 (05.24.2019)
[9] = hct chop 250 (ng), biological replicate 3 (05.24.2019)
[10] = hct chop 500 (ng), biological replicate 1 (05.22.2019)
[11] = hct chop 500 (ng), biological replicate 2 (05.24.2019)
[12] = hct chop 500 (ng), biological replicate 3 (05.24.2019)
[13] = hct chop 1000 (ng), biological replicate 1 (05.24.2019)
[14] = hct chop 1000 (ng), biological replicate 2 (05.24.2019)
[15] = hct chop 1000 (ng), biological replicate 3 (05.24.2019)

B1: CHOP: CHOP (canonical isoform) expression vector, expression of CHOP in absence of ER stress (protein, UniProt P35638 1-169, looked up)
DNA damage-inducible …: MAAESLPFSFGTLSSWELEAWYEDLQEVLSSDENGGTYVSPPGNEEEESKIFTTLDPASLAWLTEEEPEPAEVTSTSQSPHSPDSSQSSLAQEEEEEDQGRTRKRKQSGHSPARAGKQRMKEKEQENERKVAQLAEENERLKQEIERLTREVEATRRALIDRMVNLHQA
modifications: expression vector
notes: CHOP (canonical isoform) expression vector, expression of CHOP in absence of ER stress
Difference between means (HCT116 cells [1]; CHOP - 125 ng vs. empty, Welch's correction): 0.4983 ± 1.264 | Mean ± SEM (Fig 1S2D) (HCT116 cells [1]; CHOP - 125 ng): 4.046 ± 0.1409, n=3 | Difference between means (HCT116 cells [1]; CHOP - 250 ng vs. CHOP - 125 ng, Welch's correction): 4.057 ± 2.101 | Mean ± SEM (Fig 1S2D) (HCT116 cells [1]; CHOP - 250 ng): 8.103 ± 2.097, n=3 | Difference between means (HCT116 cells [1]; CHOP - 500 ng vs. CHOP - 125 ng, Welch's correction): 4.960 ± 2.593 | Difference between means (HCT116 cells [1]; CHOP - 500 ng vs. CHOP - 250 ng, unpaired t test): 0.9028 ± 3.332 | Difference between means (HCT116 cells [1]; CHOP - 500 ng vs. MPZ-GFP, unpaired t test): -28.90 ± 5.936 | Difference between means (HCT116 cells [1]; CHOP - 500 ng vs. empty, unpaired t test): 5.458 ± 2.878 | Mean ± SEM (Fig 1S2D) (HCT116 cells [1]; CHOP - 500 ng): 9.006 ± 2.589, n=3 | Trypan blue+ (HCT116 cells [2]; CHOP - 125 ng, Rep 1): 4.216 | Trypan blue- (HCT116 cells [2]; CHOP - 125 ng, Rep 1): 95.7841 | Trypan blue+ (HCT116 cells [2]; CHOP - 125 ng, Rep 2): 3.766 | Trypan blue- (HCT116 cells [2]; CHOP - 125 ng, Rep 2): 96.2338 | Trypan blue+ (HCT116 cells [2]; CHOP - 125 ng, Rep 3): 4.155 | Trypan blue- (HCT116 cells [2]; CHOP - 125 ng, Rep 3): 95.8447 | avg Trypan blue+ (HCT116 cells [2]; CHOP - 125 ng): 4.046 | avg Trypan blue- (HCT116 cells [2]; CHOP - 125 ng): 95.9542 | Trypan blue+ (HCT116 cells [2]; CHOP - 250 ng, Rep 1): 6.303 | Trypan blue- (HCT116 cells [2]; CHOP - 250 ng, Rep 1): 93.6968 | Trypan blue+ (HCT116 cells [2]; CHOP - 250 ng, Rep 2): 12.2829 | Trypan blue- (HCT116 cells [2]; CHOP - 250 ng, Rep 2): 87.7171 | Trypan blue+ (HCT116 cells [2]; CHOP - 250 ng, Rep 3): 5.723 | Trypan blue- (HCT116 cells [2]; CHOP - 250 ng, Rep 3): 94.2771 | avg Trypan blue+ (HCT116 cells [2]; CHOP - 250 ng): 8.103 | avg Trypan blue- (HCT116 cells [2]; CHOP - 250 ng): 91.897 | Trypan blue+ (HCT116 cells [2]; CHOP - 500 ng, Rep 1): 14.1844 | Trypan blue- (HCT116 cells [2]; CHOP - 500 ng, Rep 1): 85.8156 | Trypan blue+ (HCT116 cells [2]; CHOP - 500 ng, Rep 2): 6.367 | Trypan blue- (HCT116 cells [2]; CHOP - 500 ng, Rep 2): 93.633 | Trypan blue+ (HCT116 cells [2]; CHOP - 500 ng, Rep 3): 6.466 | Trypan blue- (HCT116 cells [2]; CHOP - 500 ng, Rep 3): 93.534 | avg Trypan blue+ (HCT116 cells [2]; CHOP - 500 ng): 9.006 | avg Trypan blue- (HCT116 cells [2]; CHOP - 500 ng): 90.9942 | Trypan blue+ (HCT116 cells [2]; CHOP - 1000 ng, Rep 1): 8.481 | Trypan blue- (HCT116 cells [2]; CHOP - 1000 ng, Rep 1): 91.5194 | Trypan blue+ (HCT116 cells [2]; CHOP - 1000 ng, Rep 2): 6.72 | Trypan blue- (HCT116 cells [2]; CHOP - 1000 ng, Rep 2): 93.2796 | Trypan blue+ (HCT116 cells [2]; CHOP - 1000 ng, Rep 3): 4.533 | Trypan blue- (HCT116 cells [2]; CHOP - 1000 ng, Rep 3): 95.4674 | avg Trypan blue+ (HCT116 cells [2]; CHOP - 1000 ng): 6.578 | avg Trypan blue- (HCT116 cells [2]; CHOP - 1000 ng): 93.4221 | PARP cleavage and trypan blue staining vs misfolded-protein stress (HCT116 cells [2]; comparable CHOP-induced DR5 protein, no ER stress): drastically lower levels of PARP cleavage and trypan blue staining | Dead concentration (HCT116 cells [2]; [3]): 1.35E+05 | Live concentration (HCT116 cells [2]; [3]): 2.23E+06 | Total Concentration (HCT116 cells [2]; [3]): 2.36E+06 | Viability (%) (HCT116 cells [2]; [3]): 94.2928% | Dead concentration (HCT116 cells [2]; [4]): 1.47E+05 | Live concentration (HCT116 cells [2]; [4]): 3.33E+06 | Total Concentration (HCT116 cells [2]; [4]): 3.48E+06 | Viability (%) (HCT116 cells [2]; [4]): 95.7841% | Dead concentration (HCT116 cells [2]; [5]): 3.40E+05 | Live concentration (HCT116 cells [2]; [5]): 8.69E+06 | Total Concentration (HCT116 cells [2]; [5]): 9.03E+06 | Viability (%) (HCT116 cells [2]; [5]): 96.2338% | Dead concentration (HCT116 cells [2]; [6]): 8.03E+05 | Live concentration (HCT116 cells [2]; [6]): 1.85E+07 | Total Concentration (HCT116 cells [2]; [6]): 1.93E+07 | Viability (%) (HCT116 cells [2]; [6]): 95.8447% | Dead concentration (HCT116 cells [2]; [7]): 2.17E+05 | Live concentration (HCT116 cells [2]; [7]): 3.23E+06 | Total Concentration (HCT116 cells [2]; [7]): 3.44E+06 | Viability (%) (HCT116 cells [2]; [7]): 93.6968% | Dead concentration (HCT116 cells [2]; [8]): 5.81E+05 | Live concentration (HCT116 cells [2]; [8]): 4.15E+06 | Total Concentration (HCT116 cells [2]; [8]): 4.73E+06 | Viability (%) (HCT116 cells [2]; [8]): 87.7171% | Dead concentration (HCT116 cells [2]; [9]): 6.69E+05 | Live concentration (HCT116 cells [2]; [9]): 1.10E+07 | Total Concentration (HCT116 cells [2]; [9]): 1.17E+07 | Viability (%) (HCT116 cells [2]; [9]): 94.2771% | Dead concentration (HCT116 cells [2]; [10]): 3.52E+05 | Live concentration (HCT116 cells [2]; [10]): 2.13E+06 | Total Concentration (HCT116 cells [2]; [10]): 2.48E+06 | Viability (%) (HCT116 cells [2]; [10]): 85.8156% | Dead concentration (HCT116 cells [2]; [11]): 2.99E+05 | Live concentration (HCT116 cells [2]; [11]): 4.40E+06 | Total Concentration (HCT116 cells [2]; [11]): 4.70E+06 | Viability (%) (HCT116 cells [2]; [11]): 93.633% | Dead concentration (HCT116 cells [2]; [12]): 3.40E+05 | Live concentration (HCT116 cells [2]; [12]): 4.92E+06 | Total Concentration (HCT116 cells [2]; [12]): 5.26E+06 | Viability (%) (HCT116 cells [2]; [12]): 93.534% | Dead concentration (HCT116 cells [2]; [13]): 2.82E+05 | Live concentration (HCT116 cells [2]; [13]): 3.04E+06 | Total Concentration (HCT116 cells [2]; [13]): 3.32E+06 | Viability (%) (HCT116 cells [2]; [13]): 91.5194% | Dead concentration (HCT116 cells [2]; [14]): 2.93E+05 | Live concentration (HCT116 cells [2]; [14]): 4.07E+06 | Total Concentration (HCT116 cells [2]; [14]): 4.36E+06 | Viability (%) (HCT116 cells [2]; [14]): 93.2796% | Dead concentration (HCT116 cells [2]; [15]): 1.88E+05 | Live concentration (HCT116 cells [2]; [15]): 3.95E+06 | Total Concentration (HCT116 cells [2]; [15]): 4.14E+06 | Viability (%) (HCT116 cells [2]; [15]): 95.4674%
